# Measurements reported in PMC4172472.
# Target: vitronectin (UniProt P04004)
# Chain of UniProt P04004 (P04004 20-478): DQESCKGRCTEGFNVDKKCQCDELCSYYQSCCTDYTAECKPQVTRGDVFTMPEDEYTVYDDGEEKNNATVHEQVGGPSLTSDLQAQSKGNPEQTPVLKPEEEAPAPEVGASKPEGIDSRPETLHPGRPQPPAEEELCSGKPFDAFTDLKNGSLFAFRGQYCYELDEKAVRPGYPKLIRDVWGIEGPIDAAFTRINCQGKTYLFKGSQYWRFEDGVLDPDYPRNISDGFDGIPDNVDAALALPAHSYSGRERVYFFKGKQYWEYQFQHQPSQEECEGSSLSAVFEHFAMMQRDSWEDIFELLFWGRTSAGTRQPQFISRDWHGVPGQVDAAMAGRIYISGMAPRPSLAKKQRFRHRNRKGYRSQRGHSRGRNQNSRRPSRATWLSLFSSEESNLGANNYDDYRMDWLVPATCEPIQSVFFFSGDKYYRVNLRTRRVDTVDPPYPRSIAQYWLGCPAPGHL
substance,measurement,value
αvβ3 integrin (from UniProt P06756 31-1048; P05106 27-788) (receptor),"detachment of adherent WM266 cells from vitronectin-coated plates by the anti-αvβ3 antibody LM609 (10 µg/mL), 2 h",50%
